This is an account of results in the domain aggregation screens of Martell et al. (2025).

The data set can be described thus: soluble fraction after stress (log2 fold change); higher = more stays soluble; pooled small domains, quantitative proteomics. The note with it: stress: 50 degC. In a few lines: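 Quantitative proteomics served as the high-throughput read-out for pooled custom libraries of small protein domains. Each was stressed at 50°C. Aggregation propensity is expressed as the base-two log fold change in soluble protein after stress. A higher value means a larger share of the protein remains in solution.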
Turning to “HMIAVLEEGSRFRAINDISGKPFGPEMIIKNGQVIAAGKKILTKPKKLIGKKEGTKFNISGKEYVIKDI”, the “soluble fraction (log2)” value was -0.614.

In the case of “HMDYINALTTAGITDAKVIVTAPFDVSGTAALTGIYKAYEDITGSSLNEIAKAVGVEELITTGNLA”, the “soluble fraction (log2)” value was 0.0392. The same measure for “HMTSKIIIGDSYSKINKLLGEPENMKKRKFLDNEYLMVLYSINKKNYRLYFKDNILFELEDI”: -0.941. The value for “HMENMETSDIVARYSNMPGGIIEAFHEIVDRHGFLSQEAIIEAARGFGISVAEAYGVATFYSMFS” was -0.336. As for “HMRMLLKELLIQYEVKNDKSHVEVAKEVGVSLSTYYRWLNGESLHLKKRTIDRLSEVLHYDINQVVEES”, the “soluble fraction (log2)” value was -2.35. The value for “HMEVTENQEKHAYQEAMDQALRFLAPRFLSRAELTRKLLQKEHDRDVIDAVIDRLEELDYVDDAR” was 0.0309; that for “HMRGFGEVGQLPSGRYRARYTGPDGGRHSAPITFVARIDAEGWLVDQERMISRGEWEPPARQ” was -0.224; that for “HMNREEFLSQLERLLYDIPAQEREEALEYYNGYFDDAGKEKEAEVIQELGSPGKVAAIIKADLSG” was -0.0285. The same measure for “HMVNKQERTYTILRDRIHSGSFAPLERLNIDALARELGVSPIPVREALRRLEAEGWVRFTPNVGAVVSP”: -0.165; for “HMRGLIEPLSQRELEVLMLMARGQSNAHIADQLNISENTIKWHGRNIFGKLGVSNRTEAVITSQEMGMLAT”: -0.621. “HMSVPQENKDLLGRSIEIFYAGKTVEAKVTDTGALAPLGRALDLSPATWRAFGASSISDWGVRGVFYRFVA”: the “soluble fraction (log2)” value amounted to 0.0464.

In the case of “HMPTNVYSIIGKEGIVLESIDNLNSTGKVKVNGELWSAISDSNIEKGETIKVLSVNGVKLKVEKVN”, the “soluble fraction (log2)” value worked out at 0.0885. “HMINDPSALGQRAFVDELLWMAGYVPEKIEIYQTLPNNSRVYRVKLDSVNGGFIFIRWDKKKKEHYV”: the “soluble fraction (log2)” value came out at 0.114. Consider “HMASPEIAFLNKFYQLSNTVNEISVMKIVKNYQEKYQQRISIEQMAKTLKTMGYAVRNNIISNIEEAPV”, for which the “soluble fraction (log2)” value was -1.3. The same measure for “HMPAVTEQTRANLRTAFWSLYREKPTSKITVREITDRAGYNRATFYLYYRDVYDLFEQIEQEIL”: -2.36.

In the case of “HMNSEEINDVRKAVDELPTHLREILLLNYFQQMSYVQISDSLEIPLGTVKSRLHAAVAAFRNAWQSSQEE”, the “soluble fraction (log2)” value was -0.617. Regarding “HMADLIVFTTDANKEKKVDDETYFYLDVVSDGKLVENYELTEKQYNYIKDLGVGEYVYNEKGKLDSYTAFT”, the “soluble fraction (log2)” value is -0.00687. As for “HMSFTSQSVLIEIVRGTTQLTPLAAAVGANKREVVLAVHRLKQRGLVVSAGLGQYAATEAGRAFLTAGREV”, the “soluble fraction (log2)” value was -2.76. “HMFVVVPDLIGKTINQFEEDLSELNLKYVVSDSGNFNPEFKINAVLDQSPKANSKVKDGRKIYLTLNAS”: the “soluble fraction (log2)” value was -0.432.

For the sequence “HMVSVGDIFAGRIISNENGHLLLQLLDGSKISAQTVTDLKYNIGDVLNLEIIEEKQGLIFVRQT”, the “soluble fraction (log2)” value is -0.516. The value for “HMSLNHDIWVQELKEKRSGYGISQSRLAIAAGMTRQYLSDIETGKVLPSAERKAAITEALERFNPD” was -0.368; that for “HMRDVVVVPDLSGLTQMEALSKLDAESLNIGEINYGVSEMPEGVIFKQDPVYGTELMKGDTVDIFISGR” was -0.527; that for “HMRMSLDEAKAVVLPIGEYKGRNMGEVLAIKPELIDFYASQKFNSSKYPYLKEAAQVILENQ” was -0.0538. With “HMRKLHFVMSEIYEDHPWIGSKLQDVFLPKDIRVVLVERDSKQFMPNGQTLFELGDRLTLSALHYDPA”, the “soluble fraction (log2)” value is -3.02.

With “HMQPDYRVLYSNFSDKDGGAIVAALEKMNVPYKFSEGGSAILVPAGQVHQARLKLAADGLPK”, the “soluble fraction (log2)” value is 0.0409. Regarding “HMNVVSIEHIRTHLQNHLSLIGRSIEESFNEAKVIAFVASLFLTHRGYASVSQDMGTNGEIYLQDLW”, the “soluble fraction (log2)” value is -0.381.

With “HMLYETLKKGDQGTSVKTLQEKLKALGYLTGAADGKYGAGTETAVKSFQKAAGLTETGTADPETLSAVYAA”, the “soluble fraction (log2)” value came out at 0.17. Turning to “HMDSLIEYENERSLRRLINENLSDYERTVWWLYYAGADAAHIAEQTGRSKRSAENAITRVRRKLRALITQS”, the “soluble fraction (log2)” value was -1.08.
